In publication PMC5921579:

Substrate: O=P(O)(O)O[C@@H]1[C@H](O)[C@H](O)[C@@H](OP(=O)(O)O)[C@H](OP(=O)(O)O)[C@H]1O
Experiment: ADP luciferase assay, nonlinear regression
Assay type: biochemical, Trypanosoma brucei
Settings: 200 µM ATP, 2 mM MgCl2, 20 mM HEPES, 150 mM NaCl, pH 7.5, 37°C

B1: T. brucei IPMK (rIPMK, rTbIPMK) (Trypanosoma brucei brucei TREU927) (protein)
chain: MLNICQNLSSVAKPDLIVVSGHKCNIQRGPQTSIGTPTITKRVTAWEALIYLEMLLAEDEAFAILATFVPPLVALLPPENFASDNWVYVHDPASRPLLKSIFAQLKQMSADTHGYNEVMDTTRWEIILVDVTATFHKPCVLDIKLGYVRHSPHTLPDKVERIHKRQLRRSQPIRFCGAHHQFCRQNNDIGECFELEEFTKDMGYALETEESHRRALRSFFTTASLMTTSNTNETTIIDDRHAMARSRCCRQRVQKLVDFLKGHLGQMLLERIAFVSASLLIVYDATGCCGRNVTVSEGINSMNDMVNVYLIDFSRSGDRRLHFPEEVVGFVQGLEKIIFLLS
For B1, the Km was 61.41 (±15.37) µM, the Vmax was 617 µmol/min/mg and the kcat/Km was 167000 M⁻¹ s⁻¹.
